Data on one molecule can be found in publication doi:10.1101/2023.12.19.572309 (bioRxiv, 2023).

As a reminder, the Kd is the concentration at which binding is half-saturated.

For the test, the target named is ATG16L1-(StrepII^2x)ATG5–ATG12 complex (UniProt Q676U5;Q9H1Y0;O94817). Description: BLI. For orientation: BLI is a label-free optical method that tracks binding on a fibre tip over time.
Chain of ATG16L1-(StrepII^2x)ATG5–ATG12 complex (Q676U5 whole entry, chain 1 of 3): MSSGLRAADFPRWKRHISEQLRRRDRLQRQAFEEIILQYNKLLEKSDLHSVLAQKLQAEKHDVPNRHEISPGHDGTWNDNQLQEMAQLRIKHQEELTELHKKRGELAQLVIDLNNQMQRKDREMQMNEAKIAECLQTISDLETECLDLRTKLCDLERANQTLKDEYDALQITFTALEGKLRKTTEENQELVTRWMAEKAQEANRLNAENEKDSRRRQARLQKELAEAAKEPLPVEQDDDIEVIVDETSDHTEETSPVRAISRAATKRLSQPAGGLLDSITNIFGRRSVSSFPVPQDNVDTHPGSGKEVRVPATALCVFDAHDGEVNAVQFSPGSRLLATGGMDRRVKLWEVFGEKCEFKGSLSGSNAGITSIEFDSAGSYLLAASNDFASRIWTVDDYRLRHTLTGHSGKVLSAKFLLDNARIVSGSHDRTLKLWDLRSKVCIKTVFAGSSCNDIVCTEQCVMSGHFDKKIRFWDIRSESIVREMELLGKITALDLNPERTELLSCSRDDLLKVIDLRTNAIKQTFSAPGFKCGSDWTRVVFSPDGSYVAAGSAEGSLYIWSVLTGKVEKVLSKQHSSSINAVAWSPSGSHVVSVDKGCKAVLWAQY
Chain of ATG16L1-(StrepII^2x)ATG5–ATG12 complex (Q9H1Y0 whole entry, chain 2 of 3): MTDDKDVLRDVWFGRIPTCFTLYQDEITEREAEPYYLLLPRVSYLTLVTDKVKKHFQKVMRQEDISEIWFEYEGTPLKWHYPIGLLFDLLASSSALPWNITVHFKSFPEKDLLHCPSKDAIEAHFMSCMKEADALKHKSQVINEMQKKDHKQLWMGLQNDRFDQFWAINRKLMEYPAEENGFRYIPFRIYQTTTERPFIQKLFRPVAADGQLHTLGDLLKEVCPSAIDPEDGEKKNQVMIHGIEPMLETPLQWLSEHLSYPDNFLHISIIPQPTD
Chain of ATG16L1-(StrepII^2x)ATG5–ATG12 complex (O94817 whole entry, chain 3 of 3): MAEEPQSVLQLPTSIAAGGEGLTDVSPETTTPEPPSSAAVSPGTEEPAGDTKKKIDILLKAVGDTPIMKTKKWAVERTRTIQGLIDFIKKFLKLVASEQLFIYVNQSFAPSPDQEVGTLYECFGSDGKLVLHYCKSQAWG

B1: 6xHis-3xFLAG-V1H(1-351) (domain or fragment)
chain: MTKMDIRGAVDAAVPTNIIAAKAAEVRANKVNWQSYLQGQMISAEDCEFIQRFEMKRSPEEKQEMLQTEGSQCAKTFINLMTHICKEQTVQYILTMVDDMLQENHQRVSIFFDYARCSKNTAWPYFLPMLNRQDPFTVHMAARIIAKLAAWGKELMEGSDLNYYFNWIKTQLSSQKLRGSGVAVETGTVSSSDSSQYVQCVAGCLQLMLRVNEYRFAWVEADGVNCIMGVLSNKCGFQLQYQMIFSIWLLAFSPQMCEHLRRYNIIPVLSDILQESVKEKVTRIILAAFRNFLEKSTERETRQEYALAMIQCKVLKQLENLEQQKYDDEDISEDIKFLLEKLGESVQDLSS
In the case of B1, the dissociation constant Kd stood at 9.2 µM.
